Measured values taken from publication PMC10630445, “RNA recognition by Npl3p reveals U2 snRNA-binding compatible with a chaperone role during splicing”.

Key:
Npl3 RRM1/2 [1] = target: T1, Npl3 RRM1/2 (Saccharomyces cerevisiae, UniProt Q01560 114-282); assay: NMR titration; UV melting; protein destabilizes the stem; Tm decreased; ITC at 40 °C in NMR buffer: RRM1 and RRM1/2 25 mM Na2HPO4, 25 mM NaH2PO4 pH 6.9; RRM2 100 mM NaCl, 20 mM NaH2PO4 pH 5.5; NMR titrations at 40 °C (U2 SL I 1D spectra at 303 K); conditions: protein: recombinant; (pET28a, nickel purification); hairpin
T1 sequence: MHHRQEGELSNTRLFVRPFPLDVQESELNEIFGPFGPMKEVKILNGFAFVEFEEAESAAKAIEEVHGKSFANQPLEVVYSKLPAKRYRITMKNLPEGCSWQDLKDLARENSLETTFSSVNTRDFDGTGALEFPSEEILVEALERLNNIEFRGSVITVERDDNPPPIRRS

Npl3 RRM1 [2] = target: T2, Npl3 RRM1 (Saccharomyces cerevisiae, UniProt Q01560 114-201); assay: ITC; ITC at 40 °C in NMR buffer: RRM1 and RRM1/2 25 mM Na2HPO4, 25 mM NaH2PO4 pH 6.9; RRM2 100 mM NaCl, 20 mM NaH2PO4 pH 5.5; NMR titrations at 40 °C (U2 SL I 1D spectra at 303 K); conditions: protein: recombinant; (pET28a, nickel purification)
T2 sequence: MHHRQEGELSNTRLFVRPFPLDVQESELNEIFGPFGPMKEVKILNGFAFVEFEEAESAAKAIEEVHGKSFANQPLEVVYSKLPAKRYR

Npl3 RRM1 [3] = target: T2, Npl3 RRM1; assay: NMR titration; ITC at 40 °C in NMR buffer: RRM1 and RRM1/2 25 mM Na2HPO4, 25 mM NaH2PO4 pH 6.9; RRM2 100 mM NaCl, 20 mM NaH2PO4 pH 5.5; NMR titrations at 40 °C (U2 SL I 1D spectra at 303 K); conditions: protein: recombinant; (pET28a, nickel purification)
Npl3 RRM1/2 [4] = target: T1, Npl3 RRM1/2; assay: ITC; ITC at 40 °C in NMR buffer: RRM1 and RRM1/2 25 mM Na2HPO4, 25 mM NaH2PO4 pH 6.9; RRM2 100 mM NaCl, 20 mM NaH2PO4 pH 5.5; NMR titrations at 40 °C (U2 SL I 1D spectra at 303 K); conditions: protein: recombinant; (pET28a, nickel purification)
Npl3 RRM2 = target: T3, Npl3 RRM2 (Saccharomyces cerevisiae, UniProt Q01560 193-282); assay: as above; conditions: protein: recombinant; (pET28a, nickel purification)
T3 sequence: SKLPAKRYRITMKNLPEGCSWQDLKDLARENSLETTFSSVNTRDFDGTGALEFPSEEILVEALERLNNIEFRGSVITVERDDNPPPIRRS

Npl3 RRM1/2 Q214A = target: T4, Npl3 RRM1/2 Q214A (Saccharomyces cerevisiae, UniProt Q01560 114-282, Q214A); assay: as above; conditions: protein: recombinant; (pET28a)
T4 sequence: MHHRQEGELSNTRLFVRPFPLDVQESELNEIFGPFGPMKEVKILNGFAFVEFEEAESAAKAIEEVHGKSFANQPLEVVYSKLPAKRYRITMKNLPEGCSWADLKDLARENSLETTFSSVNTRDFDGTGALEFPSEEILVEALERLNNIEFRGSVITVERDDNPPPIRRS

[5] = target: T5, Npl3 RRM1/2 linker 3xGGGGS (Saccharomyces cerevisiae, UniProt Q01560 114-194+=GGGGSGGGGSGGGGS+198-282, internal_change); assay: as above; conditions: protein: recombinant; (pET28a)
T5 sequence: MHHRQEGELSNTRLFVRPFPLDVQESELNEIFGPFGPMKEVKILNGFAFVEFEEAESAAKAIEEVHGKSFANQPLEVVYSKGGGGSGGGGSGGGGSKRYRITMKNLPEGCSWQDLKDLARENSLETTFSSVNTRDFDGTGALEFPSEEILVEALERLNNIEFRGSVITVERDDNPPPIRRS

Npl3 RRM1/2 linker GGG = target: T6, Npl3 RRM1/2 linker GGG (Saccharomyces cerevisiae, UniProt Q01560 114-282, L195G;P196G;A197G); assay: as above; conditions: protein: recombinant; (pET28a)
T6 sequence: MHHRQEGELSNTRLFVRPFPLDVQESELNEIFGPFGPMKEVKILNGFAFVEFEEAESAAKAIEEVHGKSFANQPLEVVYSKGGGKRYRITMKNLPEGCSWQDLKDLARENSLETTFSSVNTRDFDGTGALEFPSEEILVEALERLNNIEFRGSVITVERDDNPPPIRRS

Npl3 RRM1/2 R130A = target: T7, Npl3 RRM1/2 R130A (Saccharomyces cerevisiae, UniProt Q01560 114-282, R130A); assay: as above; conditions: protein: recombinant; (pET28a)
T7 sequence: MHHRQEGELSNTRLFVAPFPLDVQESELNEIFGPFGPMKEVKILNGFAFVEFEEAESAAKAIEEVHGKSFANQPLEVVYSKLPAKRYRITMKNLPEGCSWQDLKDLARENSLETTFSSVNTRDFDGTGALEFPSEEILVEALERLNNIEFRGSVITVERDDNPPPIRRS

Npl3 RRM1/2 F128A = target: T8, Npl3 RRM1/2 F128A (Saccharomyces cerevisiae, UniProt Q01560 114-282, F128A); assay: as above; conditions: protein: recombinant; (pET28a)
T8 sequence: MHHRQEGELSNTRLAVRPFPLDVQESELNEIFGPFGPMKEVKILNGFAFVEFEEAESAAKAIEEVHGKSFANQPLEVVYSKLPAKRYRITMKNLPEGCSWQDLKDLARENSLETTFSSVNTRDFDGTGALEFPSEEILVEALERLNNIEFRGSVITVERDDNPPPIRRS

Npl3 RRM1/2 F229A = target: T9, Npl3 RRM1/2 F229A (Saccharomyces cerevisiae, UniProt Q01560 114-282, F229A); assay: as above; conditions: protein: recombinant; (pET28a)
T9 sequence: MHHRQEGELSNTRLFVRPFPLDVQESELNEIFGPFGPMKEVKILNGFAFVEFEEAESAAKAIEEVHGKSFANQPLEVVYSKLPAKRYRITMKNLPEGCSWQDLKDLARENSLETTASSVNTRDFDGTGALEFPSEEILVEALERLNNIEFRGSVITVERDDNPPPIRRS

Npl3 RRM1/2 K217A = target: T10, Npl3 RRM1/2 K217A (Saccharomyces cerevisiae, UniProt Q01560 114-282, K217A); assay: as above; conditions: protein: recombinant; (pET28a)
T10 sequence: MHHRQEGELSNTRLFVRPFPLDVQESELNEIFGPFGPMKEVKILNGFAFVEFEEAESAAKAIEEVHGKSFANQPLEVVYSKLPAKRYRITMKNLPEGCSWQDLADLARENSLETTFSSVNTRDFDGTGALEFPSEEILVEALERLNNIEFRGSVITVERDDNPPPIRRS

Npl3 RRM1/2 Q214A+K217A = target: T11, Npl3 RRM1/2 Q214A+K217A (Saccharomyces cerevisiae, UniProt Q01560 114-282, Q214A;K217A); assay: as above; conditions: protein: recombinant; (pET28a)
T11 sequence: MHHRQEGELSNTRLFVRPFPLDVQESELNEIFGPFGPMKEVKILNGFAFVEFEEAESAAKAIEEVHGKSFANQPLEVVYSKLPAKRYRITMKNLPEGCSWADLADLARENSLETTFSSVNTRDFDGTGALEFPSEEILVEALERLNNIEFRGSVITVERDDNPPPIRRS

Npl3 RRM1/2 R126A = target: T12, Npl3 RRM1/2 R126A (Saccharomyces cerevisiae, UniProt Q01560 114-282, R126A); assay: as above; conditions: protein: recombinant; (pET28a)
T12 sequence: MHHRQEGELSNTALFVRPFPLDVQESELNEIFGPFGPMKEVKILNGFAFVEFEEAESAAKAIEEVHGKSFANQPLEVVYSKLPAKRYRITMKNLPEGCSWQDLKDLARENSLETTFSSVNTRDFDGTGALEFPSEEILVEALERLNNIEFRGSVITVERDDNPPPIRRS

Binder: GAGCGAAUCUCUUUGCCUUUUGGCUUAGAUC (structured_RNA) [U2 snRNA stem-loop I]
- binding result (Npl3 RRM1/2 [1]): binds

Binder: AUCCAA (ssRNA) [RRM1 site RNA]
- Kd (Npl3 RRM1 [2]): ~16200 nM

Binder: UUUUUUUU (ssRNA) [polyU 8mer RNA]
- binding result (Npl3 RRM1 [3]): no binding

Binder: AUCCAGUGAAA (ssRNA) [G9A RNA]
- Kd (Npl3 RRM1/2 [4]): 2500 nM

Binder: AUCCAAUGGAA (ssRNA) [G6A RNA]
- Kd (Npl3 RRM1/2 [4]): 2200 nM

Binder: AUCCAGUAGAA (ssRNA) [G8A RNA]
- Kd (Npl3 RRM1/2 [4]): 1900 nM

Binder: AUGGAGUCCAA (ssRNA) [inverted motif RNA]
- Kd (Npl3 RRM1/2 [4]): 1200 nM

Binder: AGUGGAC (ssRNA) [RRM2 site RNA]
- Kd (Npl3 RRM2): 2200 nM

Binder: AUUCAGUGGAA (ssRNA) [C3U RNA]
- Kd (Npl3 RRM1/2 [4]): 1800 nM

Binder: AUCCAGUGGAA (ssRNA) [split-iCRAC consensus RNA]
- Kd (Npl3 RRM1/2 Q214A): 1700 nM
- Kd [5]: 6800 nM
- Kd (Npl3 RRM1/2 linker GGG): 3800 nM
- Kd (Npl3 RRM1/2 R130A): 900 nM
- Kd (Npl3 RRM1/2 F128A): 12800 nM
- Kd (Npl3 RRM1/2 F229A): 2300 nM
- Kd (Npl3 RRM1/2 K217A): 7500 nM
- Kd (Npl3 RRM1/2 [4]): 500 nM
- Kd (Npl3 RRM1/2 Q214A+K217A): 15300 nM
- Kd (Npl3 RRM1/2 R126A): 10700 nM

Binder: AUCUAGUGGAA (ssRNA) [C4U RNA]
- Kd (Npl3 RRM1/2 [4]): 1600 nM
